Source: IntAct's records for PubMed 22274616

B1: Protein PML (Homo sapiens), P29590 (parent)
chain: MEPAPARSPRPQQDPARPQEPTMPPPETPSEGRQPSPSPSPTERAPASEEEFQFLRCQQCQAEAKCPKLLPCLHTLCSGCLEASGMQCPICQAPWPLGADTPALDNVFFESLQRRLSVYRQIVDAQAVCTRCKESADFWCFECEQLLCAKCFEAHQWFLKHEARPLAELRNQSVREFLDGTRKTNNIFCSNPNHRTPTLTSIYCRGCSKPLCCSCALLDSSHSELKCDISAEIQQRQEELDAMTQALQEQDSAFGAVHAQMHAAVGQLGRARAETEELIRERVRQVVAHVRAQERELLEAVDARYQRDYEEMASRLGRLDAVLQRIRTGSALVQRMKCYASDQEVLDMHGFLRQALCRLRQEEPQSLQAAVRTDGFDEFKVRLQDLSSCITQGKDAAVSKKASPEAASTPRDPIDVDLPEEAERVKAQVQALGLAEAQPMAVVQSVPGAHPVPVYAFSIKGPSYGEDVSNTTTAQKRKCSQTQCPRKVIKMESEEGKEARLARSSPEQPRPSTSKAVSPPHLDGPPSPRSPVIGSEVFLPNSNHVASGAGEAEERVVVISSSEDSDAENSSSRELDDSSSESSDLQLEGPSTLRVLDENLADPQAEDRPLVFFDLKIDNETQKISQLAAVNRESKFRVVIQPEAFFSIYSKAVSLEVGLQHFLSFLSSMRRPILACYKLWGPGLPNFFRALEDINRLWEFQEAISGFLAALPLIRERVPGASSFKLKNLAQTYLARNMSERSAMAAVLAMRDLCRLLEVSPGPQLAQHVYPFSSLQCFASLQPLVQAAVLPRAEARLLALHNVSFMELLSAHRRDRQGGLKKYSRYLSLQTTTLPPAQPAFNLQALGTYFEGLLEGPALARAEGVSTPLAGRGLAERASQQS

Variants of: B1
Details: with per2_mouse Per2, O54943
Chain of per2_mouse Per2, O54943 (O54943 whole entry): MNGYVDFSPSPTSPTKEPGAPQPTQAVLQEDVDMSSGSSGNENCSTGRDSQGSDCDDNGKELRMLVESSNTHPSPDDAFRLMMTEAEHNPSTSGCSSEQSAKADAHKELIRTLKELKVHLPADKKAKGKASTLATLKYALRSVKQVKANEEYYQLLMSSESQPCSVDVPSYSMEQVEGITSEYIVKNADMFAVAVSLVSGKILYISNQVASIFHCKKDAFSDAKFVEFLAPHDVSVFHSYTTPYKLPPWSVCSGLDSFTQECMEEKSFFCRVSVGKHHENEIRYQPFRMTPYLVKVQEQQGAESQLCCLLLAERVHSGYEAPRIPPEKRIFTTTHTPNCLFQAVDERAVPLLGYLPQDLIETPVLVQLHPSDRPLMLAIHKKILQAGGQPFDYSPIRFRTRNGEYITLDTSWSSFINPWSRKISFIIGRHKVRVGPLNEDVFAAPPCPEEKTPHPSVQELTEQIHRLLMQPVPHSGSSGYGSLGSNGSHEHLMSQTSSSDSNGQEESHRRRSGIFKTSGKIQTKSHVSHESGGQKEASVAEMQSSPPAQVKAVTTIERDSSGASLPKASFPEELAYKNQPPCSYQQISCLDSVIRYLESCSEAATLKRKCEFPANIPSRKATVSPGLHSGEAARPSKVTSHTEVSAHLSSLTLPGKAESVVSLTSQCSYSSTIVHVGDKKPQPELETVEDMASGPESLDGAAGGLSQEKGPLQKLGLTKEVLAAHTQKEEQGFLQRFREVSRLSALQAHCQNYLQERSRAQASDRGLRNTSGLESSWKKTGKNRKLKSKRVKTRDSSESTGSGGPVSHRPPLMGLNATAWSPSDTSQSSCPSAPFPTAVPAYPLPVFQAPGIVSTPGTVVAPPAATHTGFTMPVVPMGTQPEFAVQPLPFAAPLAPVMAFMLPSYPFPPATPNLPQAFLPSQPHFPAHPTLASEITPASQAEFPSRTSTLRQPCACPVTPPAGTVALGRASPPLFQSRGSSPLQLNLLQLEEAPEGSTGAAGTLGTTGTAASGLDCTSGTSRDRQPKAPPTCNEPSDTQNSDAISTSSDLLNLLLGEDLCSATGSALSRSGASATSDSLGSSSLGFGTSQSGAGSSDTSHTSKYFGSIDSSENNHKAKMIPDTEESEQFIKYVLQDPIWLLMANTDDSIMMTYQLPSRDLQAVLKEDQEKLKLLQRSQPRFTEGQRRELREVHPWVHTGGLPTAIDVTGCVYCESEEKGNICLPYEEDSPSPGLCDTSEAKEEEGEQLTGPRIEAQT

Row | effect of a mutation on the interaction | Variant
1 | decreasing interaction strength | K487R
